The assay concerns the target cynomolgous monkey LAG3 expressed on cells (cynomolgous monkey). Kind of assay: cell based KinExA, BaF/3 cells transfected with cynomolgus LAG3 (n=2). (In general: In KinExA the mixture passes briefly over coated beads that capture the unbound partner.)

Chain of cynomolgous monkey LAG3 expressed on cells (cynomolgous monkey) (P18627 other isoform, or with tags, fused parts or gaps limits assumed): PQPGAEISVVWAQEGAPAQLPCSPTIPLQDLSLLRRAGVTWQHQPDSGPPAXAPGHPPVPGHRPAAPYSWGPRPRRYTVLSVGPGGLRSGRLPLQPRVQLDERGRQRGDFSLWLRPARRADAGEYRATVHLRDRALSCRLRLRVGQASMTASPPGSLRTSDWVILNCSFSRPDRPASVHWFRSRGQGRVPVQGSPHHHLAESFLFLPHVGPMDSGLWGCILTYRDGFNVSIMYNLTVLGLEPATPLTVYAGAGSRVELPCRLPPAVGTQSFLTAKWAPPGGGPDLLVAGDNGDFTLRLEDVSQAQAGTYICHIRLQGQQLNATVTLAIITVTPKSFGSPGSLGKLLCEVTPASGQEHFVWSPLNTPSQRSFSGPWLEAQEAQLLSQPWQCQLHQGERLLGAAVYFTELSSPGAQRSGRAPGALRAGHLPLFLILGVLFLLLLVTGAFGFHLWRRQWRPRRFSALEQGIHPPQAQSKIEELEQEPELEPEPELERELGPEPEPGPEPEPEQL

B1: 22D2 chimera: chimeric antibody [LAG3_H] mAb (LB145.22D2.E1.D1 (VH0/VL0) Geneart) IgG4 S228P/kappa (PX) (antibody, V domains shown)
VH: EVLLLQSGPELVKPGTSVKIPCKASGYTFTDYNVDWVKQRHGKGLEWIGDINPNNGGTIYSQKFKGKATLTVDKSSSTAFMELRSLTSEDTAVYFCARNYRWFGAMDHWGQGTSVTVSS
VL: DIVLTQSPASLAVSPGQRATISCKASQSLDYEGDSDMNWYQQKPGQPPRLLISGASNLESGIPARFSGSGSGTDFTVNIHPVEEEDAATYYCQQSTEDPRTFGGGTKLEIK
In turn, B1 came in with a Kd of 11 pM.

The Kd is the free concentration of one partner at which half of the binding sites on the other are occupied at equilibrium, for simple one-to-one binding.

For the origin of these results see US20190083615A1.
